Measurements as given in US20140322225A1 (ADRENOMED, published 2014).

B1: NT-H (antibody, V domains shown)
VH: QVQLQQSGAELMKPGASVKISCKATGYTFSRYWIEWVKQRPGHGLEWIGEILPGSGSTNYNEKFKGKATITADTSSNTAYMQLSSLTSEDSAVYYCTEGYEYDGFDYWGQGTTLTVSS
VL: DVLLSQTPLSLPVSLGDQATISCRSSQSIVYSNGNTYLEWYLQKPGQSPKLLIYRVSNRFSGVPDRFSGSGSGTDFTLKISRVEAEDLGVYYCFQGSHIPYTFGGGTKLEIK
notes: also called NT-H antibody; antibody NT-H
B2: mouse adrenomedullin (mADM 1-50) (peptide)
peptide: YRQSMNQGSRSNGCRFGTCTFQKLAHQIYQLTDKDKDGMAPRNKISPQGYNH

How the values were obtained:
[1] = molecular target: human adrenomedullin (hADM 1-52) (human); assay: cell-based or functional assay
[2] = molecular target: human adrenomedullin (hADM 1-52) (human); assay: cell-based or functional assay; remark: listed apart in the source
[3] = molecular target: T1, human adrenomedullin (hADM 1-52) (human); assay: SPR (Biacore 2000), antibody captured via anti-mouse Fc, adrenomedullin as analyte
T1 construct: 52 amino acids, aa 95-146 of pre-proADM; also called Human ADM 1-52
T1 sequence (peptide, as listed by the source): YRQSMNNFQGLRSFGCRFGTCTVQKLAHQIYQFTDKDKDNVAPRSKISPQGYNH
Protocol: Reversible immobilization of the antibodies was performed using an anti-mouse Fc antibody covalently coupled in high density to a CM5 sensor surface according to the manufacturer's instructions (mouse antibody capture kit; GE Healthcare). (Lorenz et al., “Functional Antibodies Targeting IsaA of Staphylococcus aureus Augment-lost Immune Response and Open New Perspectives for Antibacterial Therapy”; Antimicrob Agents Chemother. 2011 January; 55(1): 165-173.)

[4] = molecular target: human recombinant adrenomedullin receptor (CRLR+RAMP3) (human); assay: cell-based or functional assay

| Binder | fold stability of hADM in human citrate plasma with NT-H against hADM alone (7.8 h) [1] [fold] | IC50 (read off the curve), half of the antibody's own maximal inhibition of cAMP formation induced by 5.63 nM hADM [2] [µg/mL] | Kd [3] [nM] | EC50 (read off the curve), cAMP formation [4] [nM] |
| --- | --- | --- | --- | --- |
| B1 | 2.3 | ~2 | 5.9 |  |
| B2 |  |  |  | ~0.08 |
